In US20190359711A1:
Where a chain is given by its changes, count along the chain named.

Experiments:
[1] = target: CD3 on human pan T cells (human) (UniProt P07766); assay: Kd derived from the competition IC50: Kd=IC50/(1+([T]/KdT)); human pan T cells
[2] = target: CD3 on human pan T cells (human) (UniProt P07766); assay: flow cytometry competition on human pan T cells; competitor tracer AlexaFluor488 SP34-2 at 16.6 nM

Sequence of CD3 on human pan T cells (human) (P07766 23-207 limits assumed): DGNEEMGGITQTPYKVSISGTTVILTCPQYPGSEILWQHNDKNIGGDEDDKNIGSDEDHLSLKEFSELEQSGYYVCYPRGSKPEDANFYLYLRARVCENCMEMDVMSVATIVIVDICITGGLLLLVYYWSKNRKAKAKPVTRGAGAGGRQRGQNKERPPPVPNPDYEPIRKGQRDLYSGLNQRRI

B1: CD3B376 monovalent construct (bispecific antibody, part only; not given: second arm, constant regions, V domains shown, not shown: another chain or arm of the molecule; a dimerising Fc or GST)
VH: QVQLQQSGPRLVRPSQTLSLTCAISGDSVFNNNAAWSWIRQSPSRGLEWLGRTYYRSKWLYDYAVSVKSRITVNPDTSRNQFTLQLNSVTPEDTALYYCARGYSSSFDYWGQGTLVTVSS
VL: QSALTQPASVSGSPGQSITISCTGTSSNIGTYKFVSWYQQHPDKAPKVLLYEVSKRPSGVSSRFSGSKSGNTASLTISGLQAEDQADYHCVSYAGSGTLLFGGGTKLTVL
Kd [1]: 103 nM | IC50 [2]: 409 nM

B2: CD3B450 monovalent construct (bispecific antibody, part only; not given: second arm, constant regions, V domains shown, not shown: another chain or arm of the molecule; a dimerising Fc or GST)
VH: B1 VH with R10G, R13K, V73I, R79K, T83S, L96V
VL: B1 VL with D43G, L49M, L50I, S62N, Q85E, H89Y
Kd [1]: 254 nM | IC50 [2]: 1010 nM
